Experimental data: US20250019437A1

T1: human TREM2 (triggering receptor expressed on myeloid cells 2) (human) (UniProt Q9NZC2)
T1 sequence (looked up): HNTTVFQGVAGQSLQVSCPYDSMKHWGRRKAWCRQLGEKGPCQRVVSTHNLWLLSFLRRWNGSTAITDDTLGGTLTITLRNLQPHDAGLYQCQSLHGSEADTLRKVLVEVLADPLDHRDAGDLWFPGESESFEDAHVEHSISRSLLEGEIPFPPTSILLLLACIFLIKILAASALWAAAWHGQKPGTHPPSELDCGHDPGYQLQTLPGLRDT


Columns and labels:
[1] = target: T1, human TREM2 (triggering receptor expressed on myeloid cells 2) (human); assay: 2nd screen, 10 nM Ab
[2] = target: T1, human TREM2 (triggering receptor expressed on myeloid cells 2) (human); assay: 1st screen, 10 nM Ab
[3] = target: T1, human TREM2 (triggering receptor expressed on myeloid cells 2) (human); assay: 2nd screen, 2 nM Ab

| Binding Signal (fold over 6E7 parental antibody) [1] [fold] | Binding Signal (fold over 6E7 parental antibody) [2] [fold] | Binding Signal (fold over 6E7 parental antibody) [3] [fold] | Binder |
| --- | --- | --- | --- |
| 1.62 | 1.44 | 1.45 | 6E7 antibody affinity modulation variant V84 (antibody, V domains shown) VH: EVQLVQSGAEVKKPGESLKISCKGSGYGFTSYWIAWVRQMPGKGLEWMGIIYPGDSDTRYSPSFQGQVTISADKSISTAYLQWSSLKASDTAMYFCARQRTFYYDSSDYSDYWGQGTLVTVSS VL: DIQMTQSPSSVSASVGDRVTITCRASQGISSWLAWYQQKPGKAPKLLIYGASSLQNGVPSRFSGSGSGTDFTLTISSLQPEDFATYFCQQADSFPRTFGQGTKLEIK |
| 5.3 | 4.92 | 5.57 | 6E7 antibody affinity modulation variant V88 (antibody, V domains shown) VH: EVQLVQSGAEVKKPGESLKISCKGSGYSFGSYWIAWVRQMPGKGLEWMGIIYPGDSDTRYSPSFQGQVTISADKSISTAYLQWSSLKASDTAMYFCARQRTFYYDSSDYFDYWGQGTLVTVSS VL: DIQMTQSPSSVSASVGDRVTITCRASQGISSWLAWYQQKPGKAPKLLIYAASRLQRGVPSRFSGSGSGTDFTLTISSLQPEDFATYFCQQADSSPRTFGQGTKLEIK |
| 1.46 | 1.33 | 0.94 | 6E7 antibody affinity modulation variant V89 (antibody, V domains shown) VH: EVQLVQSGAEVKKPGESLKISCKGSGYSFTSYWIAWVRQMPGKGLEWMGIIYPGDSDTRYSPSFQGQVTISADKSISTAYLQWSSLKASDTAMYFCARQRTFYYDSSDYFDYWGQGTLVTVSS VL: DIQMTQSPSSVSASVGDRVTITCRASQGISSWLAWYQQKPGKAPKLLIYAASSLQNGVPSRFSGSGSGTDFTLTISSLQPEDFATYFCQQADSHPRTFGQGTKLEIK |
| 5.37 | 5.41 | 5.41 | 6E7 antibody affinity modulation variant V85 (antibody, V domains shown) VH: EVQLVQSGAEVKKPGESLKISCKGSGYSFRSYWIAWVRQMPGKGLEWMGTIYPGDSDTRYSPSFQGQVTISADKSISTAYLQWSSLKASDTAMYFCARSRTFYYDSSDYFDYWGQGTLVTVSS VL: DIQMTQSPSSVSASVGDRVTITCRASQGISSWLAWYQQKPGKAPKLLIYAASSRQNGVPSRFSGSGSGTDFTLTISSLQPEDFATYFCQQADSFPRTFGQGTKLEIK |
| 5.02 | 4.8 | 5.17 | 6E7 antibody affinity modulation variant V86 (antibody, V domains shown) VH: EVQLVQSGAEVKKPGESLKISCKGSGYSFGSYWLAWVRQMPGKGLEWMGIIYPGDSDTRYSPSFEGQVTISADKSISTAYLQWSSLKASDTAMYFCARSRTFYYDSSDYFDYWGQGTLVTVSS VL: DIQMTQSPSSVSASVGDRVTITCRASQGISSWLAWYQQKPGKAPKLLIYAASSRQNGVPSRFSGSGSGTDFTLTISSLQPEDFATYFCQQADSFPRTFGQGTKLEIK |
| 3.93 | 3.84 | 4.86 | 6E7 antibody affinity modulation variant V87 (antibody, V domains shown) VH: EVQLVQSGAEVKKPGESLKISCKGSGYSFRSYWIAWVRQMPGKGLEWMGIIYPGDSDVRYSPDFQGQVTISADKSISTAYLQWSSLKASDTAMYFCARSRTFYYDSSDYFDYWGQGTLVTVSS VL: DIQMTQSPSSVSASVGDRVTITCRASQGISSWLAWYQQKPGKAPKLLIYAASSLQWGVPSRFSGSGSGTDFTLTISSLQPEDFATYFCQQADSFPRTFGQGTKLEIK |

Second part, the binder before the results:

| Binder | Binding Signal (fold over 6E7 parental antibody) [1] [fold] | Binding Signal (fold over 6E7 parental antibody) [2] [fold] | Binding Signal (fold over 6E7 parental antibody) [3] [fold] |
| --- | --- | --- | --- |
| 6E7 antibody affinity modulation variant V77 (antibody, V domains shown) VH: EVQLVQSGAEVKKPGESLKISCKGSGYSFTSYWIAWVRQMPGKGLEWMGIIYPGDSDTRYSPSFQGQVTISADKSISTAYLQWSSLKASDTAMYFCARQRTFYYDSSDYFDYWGQGTLVTVSS VL: DIQMTQSPSSVSASVGDRVTITCRASQGISSWLAWYQQKPGKAPKLLIYAASSRQNGVPSRFSGSGSGTDFTLTISSLQPEDFATYFCQQADSFPRTFGQGTKLEIK | 1.38 | 1.43 | 0.83 |
| 6E7 antibody affinity modulation variant V3 (antibody, V domains shown) VH: EVQLVQSGAEVKKPGESLKISCKGSGYSFASYWIAWVRQMPGKGLEWMGIIYPGDSDTRYSPSFQDQVTISADKSISTAYLQWSSLKASDTAMYFCARGRTFYYDSSDYFDYWGQGTLVTVSS VL: DIQMTQSPSSVSASVGDRVTITCRASQGISSWLAWYQQKPGKAPKLLIYAASSRQNGVPSRFSGSGSGTDFTLTISSLQPEDFATYFCQQADRFPRTFGQGTKLEIK | 2.24 | 1.97 | 1.95 |
| 6E7 antibody affinity modulation variant V16 (antibody, V domains shown) VH: EVQLVQSGAEVKKPGESLKISCKGSGYSMTSYWIAWVRQMPGKGLEWMGIIYPGDGDTRYSPSFQGQVTISADKSISTAYLQWSSLKASDTAMYFCARSRTFYYDSSDYFDYWGQGTLVTVSS VL: DIQMTQSPSSVSASVGDRVTITCRASQGISSWLAWYQQKPGKAPKLLIYAASNLQNGVPSRFSGSGSGTDFTLTISSLQPEDFATYFCQQADSFPRTFGQGTKLEIK | 4.04 | 4.01 | 3.57 |
| 6E7 antibody affinity modulation variant V25 (antibody, V domains shown) VH: EVQLVQSGAEVKKPGESLKISCKGSGYSFGSYWIAWVRQMPGKGLEWMGLIYPGDSDTRYSPSFQGQVTISADKSISTAYLQWSSLKASDTAMYFCARSRTFYYDSSDYFDYWGQGTLVTVSS VL: DIQMTQSPSSVSASVGDRVTITCRASQGISSWLAWYQQKPGKAPKLLIYAASSLANGVPSRFSGSGSGTDFTLTISSLQPEDFATYFCQQADSMPRTFGQGTKLEIK | 4.7 | 4.23 | 3.15 |
| 6E7 antibody affinity modulation variant V5 (antibody, V domains shown) VH: EVQLVQSGAEVKKPGESLKISCKGSGYSFTSYWIAWVRQMPGKGLEWMGTIYPGDSDTRYSPSFQGQVTISADKSISTAYLQWSSLKASDTAMYFCARQRTFYYDSSDYFDYWGQGTLVTVSS VL: DIQMTQSPSSVSASVGDRVTITCRASQGISSWLAWYQQKPGKAPKLLIYAASSLQNGVPSRFSGSGSGTDFTLTISSLQPEDFATYFCQQADSHPRTFGQGTKLEIK | 2.84 | 2.73 | 1.25 |
| 6E7 antibody affinity modulation variant V14 (antibody, V domains shown) VH: EVQLVQSGAEVKKPGESLKISCKGSGYSFGSYWIAWVRQMPGKGLEWMGIIYPGDQDTRYSPSFQGQVTISADKSISTAYLQWSSLKASDTAMYFCARGRTFYYDSSDYFDYWGQGTLVTVSS VL: DIQMTQSPSSVSASVGDRVTITCRASQGISSWLAWYQQKPGKAPKLLIYAASRLQNGVPSRFSGSGSGTDFTLTISSLQPEDFATYFCQQADSFPRTFGQGTKLEIK | 4.64 | 4.71 | 2.57 |
| 6E7 antibody affinity modulation variant V17 (antibody, V domains shown) VH: EVQLVQSGAEVKKPGESLKISCKGSGYSFGSYWIAWVRQMPGKGLEWMGIIYPGDSDTRYSPSFQGQVTISADKSISTAYLQWSSLKASDTAMYFCARSRTFYYDSSDYFDYWGQGTLVTVSS VL: DIQMTQSPSSVSASVGDRVTITCRASQGISSWLAWYQQKPGKAPKLLIYAASSRQNGVPSRFSGSGSGTDFTLTISSLQPEDFATYFCQQADSSPRTFGQGTKLEIK | 5.51 | 5.37 | 4.22 |
| 6E7 antibody affinity modulation variant V4 (antibody, V domains shown) VH: EVQLVQSGAEVKKPGESLKISCKGSGYSFGSYWIAWVRQMPGKGLEWMGIIYPGDSDTRVSPSFQGQVTISADKSISTAYLQWSSLKASDTAMYFCARSRTFYYDSSDYFDYWGQGTLVTVSS VL: DIQMTQSPSSVSASVGDRVTITCRASQGISSWLAWYQQKPGKAPKLLIYAASRLQNGVPSRFSGSGSGTDFTLTISSLQPEDFATYFCQQADSYPRTFGQGTKLEIK | 5.51 | 6 | 5.88 |
| 6E7 antibody affinity modulation variant V24 (antibody, V domains shown) VH: EVQLVQSGAEVKKPGESLKISCKGSGYSFTSYWIAWVRQMPGKGLEWMGIIYPGDSDVRYSPSFQGQVTISADKSISTAYLQWSSLKASDTAMYFCARSRTFYYDSSDYFDYWGQGTLVTVSS VL: DIQMTQSPSSVSASVGDRVTITCRASQGISSWLAWYQQKPGKAPKLLIYAASSLQKGVPSRFSGSGSGTDFTLTISSLQPEDFATYFCQQADSFPHTFGQGTKLEIK | 2.9 | 2.64 | 1.42 |
| 6E7 antibody affinity modulation variant V13 (antibody, V domains shown) VH: EVQLVQSGAEVKKPGESLKISCKGSGYSFGSYWIAWVRQMPGKGLEWMGIIYPGDSDTRYSASFQGQVTISADKSISTAYLQWSSLKASDTAMYFCARGRTFYYDSSDYFDYWGQGTLVTVSS VL: DIQMTQSPSSVSASVGDRVTITCRASQGISSWLAWYQQKPGKAPKLLIYAASSLQGGVPSRFSGSGSGTDFTLTISSLQPEDFATYFCQQADSMPRTFGQGTKLEIK | 1.35 | 1.31 | 1.15 |
| 6E7 antibody affinity modulation variant V15 (antibody, V domains shown) VH: EVQLVQSGAEVKKPGESLKISCKGSGYSFASYWIAWVRQMPGKGLEWMGTIYPGDSDTRYSPSFQGQVTISADKSISTAYLQWSSLKASDTAMYFCARSRTFYYDSSDYFDYWGQGTLVTVSS VL: DIQMTQSPSSVSASVGDRVTITCRASQGISSWLAWYQQKPGKAPKLLIYAASWLQNGVPSRFSGSGSGTDFTLTISSLQPEDFATYFCQQADSYPRTFGQGTKLEIK | 4.78 | 5.23 | 4.72 |
